Assay results: US20190145962A1 (TAO HEALTH LIFE PHARMA, published 2019)

Assays:
[1] = target: T1, synthetic amylospheroids (synthetic ASPD) (UniProt P05067 672-713); experiment: SPR, synthetic ASPD solid-phased on the chip, peptide as analyte
T1 construct: Spherical Abeta assembly of about 10 nm, made in vitro; In SPR it was solid-phased on the chip; In the imaging assay it was pre-incubated with peptide and added to neurons
Procedure: Synthetic ASPD were solid-phased on a chip and each peptide shown in Table 3 below was allowed to flow as an analyte. Then the dissociation constant (KD) was determined by surface plasmon resonance (SPR).
Two peptides (HNNW (SEQ ID NO: 27) and HPNW (SEQ ID NO: 28)) that could not inhibit the binding of ASPD to neurons in the evaluation performed in section 1 above were used as negative controls.

[2] = target: T1, synthetic amylospheroids (synthetic …); experiment: ASPD pre-incubated with peptide, imaging of ASPD bound to rat hippocampal neurons
Procedure: A liquid mixture of peptide and synthetic ASPD was incubated at 4° C. for 15 minutes to pretreat the ASPD and this liquid mixture was added to primary cultured rat hippocampal neurons cultured in a 96-well plate.
After incubation at 37° C. for 15 minutes in a CO₂ incubator, the wells were washed with PBS. Then, 2% paraformaldehyde (50 μl/well) was added thereto for immobilization performed for 20 minutes at 37° C. and further 4% paraformaldehyde (50 μl/well) was added thereto for immobilization performed for 20 minutes at 37° C. After washing and blocking, a primary antibody solution containing anti-ASPD antibody (mASD3) and anti-MAP2 antibody (trade name: sc-20172, manufactured by SANTACRUZ) was added, which then was left overnight. After washing, a secondary antibody solution containing Alexa Fluoro (trademark) 568 anti-mouse antibody (trade name: A11031, manufactured by life technologies), Alexa Fluoro (trademark) 488 anti-rabbit antibody (trade name: A11034, manufactured by life technologies), and DAPI (trade name: D523, manufactured by Dojindo) was added and then fluorescence microscopic observation was performed.
Subsequently, steps 4 to 5 were performed as follows: From the microscopic observation data, a calibration curve as shown in FIG. 2 was drawn, an approximate curve was created within a range where linearity was maintained, and then ED₅₀ was calculated. Using, as an indicator, “titer” that is defined by the ratio of ED₅₀ of the ASPD treated with peptide to ED₅₀ of the ASPD alone, the ASPD-binding inhibitory ability of peptide was evaluated.

T1 sequence (P05067 672-713): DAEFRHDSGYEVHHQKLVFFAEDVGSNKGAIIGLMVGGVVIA

Binder | binding result [1] | ASPD-binding inhibitory ability (titer = ED50[ASPD+Peptide]/ED50[ASPD]) [2]
HNNW [HNNW (negative control peptide)] | no binding | 
HPNW [HPNW (negative control peptide)] | no binding | 
HRNW (also called HRNW) [Peptide 02] |  | 1.5
HKNW (also called HKNW) [Peptide 03] |  | 1.5
HDNW (also called HDNW) [Peptide 04] |  | 1.5
HHNW (also called HHNW) [Peptide 05] |  | 1.5
HWNW (also called HWNW) [Peptide 06] |  | 1.5
HQNW (also called HQNW) [Peptide 07] |  | 1.5
HYNW (also called HYNW) [Peptide 08] |  | 1.5
HTNW (also called HTNW) [Peptide 09] |  | 1.5
HANW (also called HANW) [Peptide 10] |  | 1.5
HVNW (also called HVNW) [Peptide 11] |  | 1.5
HFLW (also called HFLW) [Peptide 12] |  | 1.5
HFGW (also called HFGW) [Peptide 13] |  | 1.5
HFIW (also called HFIW) [Peptide 14] |  | 1.5
HFWW (also called HFWW) [Peptide 15] |  | 1.5
HFRW (also called HFRW) [Peptide 16] |  | 1.5
HFMW (also called HFMW) [Peptide 17] |  | 1.5
HFDW (also called HFDW) [Peptide 18] |  | 1.5
HFEW (also called HFEW) [Peptide 19] |  | 1.5
HFAW (also called HFAW) [Peptide 20] |  | 1.5
HFVW (also called HFVW) [Peptide 21] |  | 1.5
HFKW (also called HFKW) [Peptide 22] |  | 1.5
HFHW (also called HFHW) [Peptide 23] |  | 1.5
HFYW (also called HFYW) [Peptide 24] |  | 1.5
